The values below come from patent US5447852A, “DNA encoding cyclophilin C, and recombinant methods employing it” (The Board of Trustees of the Leland Stanford Junior …, priority 1993, dated 1995).

Data set [1] deals with T1, cyp C:CsA:p55 complex (cyp C-GST fusion protein and 55Kd protein) (Mus musculus, UniProt P30412).
T1 construct: A portion of the cyp C cDNA encoding aa 16-212 was cloned into the bacterial expression vector pGEX 2T; made in house; host or cells: E. coli MC1061 (cyp C-GST); 55Kd protein from labelled AC 6 cell lysate
T1 sequence (P30412 with tags, fused parts or gaps limits assumed): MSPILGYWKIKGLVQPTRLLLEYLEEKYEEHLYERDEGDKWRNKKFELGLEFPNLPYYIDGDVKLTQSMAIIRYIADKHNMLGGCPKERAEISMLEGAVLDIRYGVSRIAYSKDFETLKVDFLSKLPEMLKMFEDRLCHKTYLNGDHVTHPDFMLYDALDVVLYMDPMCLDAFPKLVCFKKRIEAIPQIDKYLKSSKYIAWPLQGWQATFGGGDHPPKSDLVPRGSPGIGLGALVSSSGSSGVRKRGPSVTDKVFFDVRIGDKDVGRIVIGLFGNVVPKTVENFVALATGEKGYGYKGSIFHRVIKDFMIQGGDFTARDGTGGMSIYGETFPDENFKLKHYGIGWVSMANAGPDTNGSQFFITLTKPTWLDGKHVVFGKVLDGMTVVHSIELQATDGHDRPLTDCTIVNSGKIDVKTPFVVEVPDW
The data set is described as follows: Cyp C affinity reactions with 35S labeled cell lysate: 55Kd protein. It is filed as binding, murine. The conditions noted are these: AC 6 cells, 77Kd and 55Kd proteins (FIG. 5). The protocol: (§1) FIG. 6. […] Control samples were incubated with 10 μg of GST. Experimental samples were incubated with 10 μg of cyp C-GST fusion protein plus the indicated drug concentration.
(§2) 10^7 TCA precipitable counts of labeled lysate were used per reaction. Reaction volumes were brought up to 1 ml in lysis buffer. Each reaction was precleared by incubation with 10 μg of glutathione-s-transferase (GST) and 100 μl of 50% glu-ag solution for 2 hours at 4° C. with gentle agitation. Reactions were spun 5 minutes in a microfuge at 4° C., and the pellets were discarded. To the precleared lysates, 10 μg of cyp C fusion protein was added, along with 30 μl of a 50% solution of glu-ag. Reactions were incubated at 4° with gentle agitation for 3-4 hours, at which time tubes were spun 5 minutes in a microfuge at 4° C., and the supernatants were removed. Glu-ag pellets were washed 4× with 1 ml of cold lysis buffer, being transferred to a fresh tube for the final wash. […], and the pellet was resuspended in 50- 100 μl of SDS-PAGE sample buffer containing β-mercaptoethanol. Samples were boiled 5 minutes and loaded onto 9.5% SDS-PAGE gels. Gels were stained/fixed in methanol: acetic acid: coomassie blue, and destained in methanol: acetic acid.

For data set [2], the system named is cyp C mRNA in AC 6 cells. The data set can be described thus: Northern analysis of cyp C mRNA in AC 6 cells. It is filed as cell-based, murine.
Protocol: Purified inserts were labeled by random priming in the presence of 50 μCi [alpha-32P] dCTP (Amersham) and were purified by chromatography over a Sephadex G-50 column. […] RNA was blotted onto nitrocellulose filters and prehybridized and hybridized in a solution containing 50% formamide, 6×SSC, 5×Denhardt's solution, 5 mM NaPO4, 100 ug/ml sheared, denatured salmon sperm DNA, and 50 ug/ml yeast tRNA. Labeled cDNA probe, prepared as described above, was hybridized for 16 hours at 45° C. for 30 minutes, followed by washing in 0.2×SSC plus 0.1% SDS at 65° C. for 30 minutes. Filters were then placed on film for autoradiographic visualization.
Twenty μg of total RNA from each source was run on a 1.2% agarose formaldehyde gel and blotted onto Genescreen (DuPont) membrane. Filters were hybridized as described above for 18 hours. The final wash conditions were 0.2×SSC, 0.1% SDS at 65° C. […] The autoradiograms presented in the Figure represent exposures of 3 days at -70° C. with an intensifying screen for both the cyp A and the cyp C probes.
Data set [3] relates to cyp A mRNA in AC 6 cells. The data set can be described thus: Northern analysis of cyp A mRNA in AC 6 cells. The conditions noted are these: AC 6 cells (FIG. 3). It is filed as cell-based, murine. The protocol:
Individual bacterial colonies containing phagemid vectors which had undergone two rounds of subtraction were cultured, and plasmid miniprep DNA was prepared from them by the NaOH/SDS, NaAcetate method. cDNA inserts were isolated by digestion of the plasmid DNA with Stu 1 and Hd III followed by low-melt agarose gel electrophoresis. Inserts were visualized by UV light and excised and purified by organic extraction and precipitation for use as templates for ^32 p probe synthesis. Purified inserts were labeled by random priming in the presence of 50 μCi [alpha-32P] dCTP (Amersham) and were purified by chromatography over a Sephadex G-50 column. AC 6MRNA prepared from IL-1 induced and uninduced cultures was electrophoresed on 1.0% formaldehyde-agarose gels using 0.5 μg RNA/lane as described (Sambrook, 1989). RNA was blotted onto nitrocellulose filters and prehybridized and hybridized in a solution containing 50% formamide, 6×SSC, 5×Denhardt's solution, 5 mM NaPO4, 100 ug/ml sheared, denatured salmon sperm DNA, and 50 ug/ml yeast tRNA. Labeled cDNA probe, prepared as described above, was hybridized for 16 hours at 45° C. […], followed by washing in 0.2×SSC plus 0.1% SDS at 65° C. for 30 minutes. Filters were then placed on film for autoradiographic visualization. […]

The target in data set [4] is cyp C-GST fusion protein (glutathione-s-transferase fused to aa 16-212 of murine cyclophilin C), without CsA (murine).
Data set [5] deals with cyp C:p77 complex (cyp C-GST fusion protein and 77Kd protein) (Mus musculus, UniProt P30412). The protocol:
as §1, §2

Sequence of cyp C:p77 complex (cyp C-GST fusion protein and 77Kd protein) (P30412 with tags, fused parts or gaps limits assumed): as above

As to “IL-1: hematopoietic and inflammatory cytokine; unpurified recombinant human IL-1 alpha used for induction of AC 6 cells”, the “effect of IL-1 in the culture media during metabolic labeling on the associating proteins” value in data set [1] was “no obvious effect”. In addition, the “elevation of cyp C mRNA in response to IL-1” value in data set [2] (AC 6 cells (FIG. 3)) is on record as “elevated approximately three-fold”. In addition, the “induction of cyp C message levels” value in data set [2] (AC 6 stromal cell line treated with IL-1) was 2-3 fold. In addition, the “elevation of cyp A mRNA in response to IL-1” value in data set [3] is on record as “elevated approximately three-fold”.

Regarding cyclosporin A (peptide), the CsA concentration that completely inhibits the isomerase activity of cyp C in data set [4] turned out to be 2 µg/mL.

Take `C=CC[C@@H]1/C=C(\C)C[C@H](C)C[C@H](OC)[C@H]2O[C@@](O)(C(=O)C(=O)N3CCCC[C@H]3C(=O)O[C@H](/C(C)=C/[C@@H]3CC[C@@H](O)[C@H](OC)C3)[C@H](C)[C@@H](O)CC1=O)[C@H](C)C[C@@H]2OC` [FK506]: the “effect on the binding of cyp C to the 77Kd protein” value in data set [5] is listed as “no effect”.
